Experimental data: article PMC3962895

Target: dEV8 (8-mer self-peptide) peptide on H-2Kb (mouse)
Assay: data from

Substance: 2C TCR
- Kd: 84.1 µM
